Experimental data taken from patent US20130143227A1 (University of Texas, published 2013).

B1: recombinant human RSPO2 (ligand, UniProt Q6UXX9 22-243, looked up)
chain: QGNRWRRSKRASYVSNPICKGCLSCSKDNGCSRCQQKLFFFLRREGMRQYGECLHSCPSGYYGHRAPDMNRCARCRIENCDSCFSKDFCTKCKVGFYLHRGRCFDECPDGFAPLEETMECVEGCEVGHWSEWGTCSRNNRTCGFKWGLETRTRQIVKKPVKDTILCPTIAESRRCKMTMRHCPGGKRTPKAKEKRNKKKKRKLIERAQEQHSVFLATDRANQ
notes: Bought from R&D Systems; also called R-spondin 2
B2: recombinant human RSPO1 (ligand, UniProt Q2MKA7 21-263, looked up)
chain: SRGIKGKRQRRISAEGSQACAKGCELCSEVNGCLKCSPKLFILLERNDIRQVGVCLPSCPPGYFDARNPDMNKCIKCKIEHCEACFSHNFCTKCKEGLYLHKGRCYPACPEGSSAANGTMECSSPAQCEMSEWSPWGPCSKKQQLCGFRRGSEERTRRVLHAPVGDHAACSDTKETRRCTVRRVPCPEGQKRRKGGQGRRENANRNLARKESKEAGAGSRRRKGQQQQQQQGTVGPLTSAGPA
notes: Bought from R&D Systems; also called R-spondin 1
B3: recombinant human RSPO4 (ligand)
chain: LNRRKKQVGTGLGGNCTGCIICSEENGCSTCQQRLFLFIRREGIRQYGKCLHDCPPGYFGIRGQEVNRCKKCGATCESCFSQDFCIRCKRQFYLYKGKCLPTCPPGTLAHQNTRECQGECELGPWGGWSPCTHNGKTCGSAWGLESRVREAGRAGHEEAATCQVLSESRKCPIQRPCPGERSPGQKKGRKDRRPRKDRKLDRRLDVRPRQPGLQP
notes: Bought from R&D Systems; also called R-spondin 4
B4: recombinant human RSPO3 (ligand)
chain: QNASRGRRQRRMHPNVSQGCQGGCATCSDYNGCLSCKPRLFFALERIGMKQIGVCLSSCPSGYYGTRYPDINKCTKCKADCDTCFNKNFCTKCKSGFYLHLGKCLDNCPEGLEANNHTMECVSIVHCEVSEWNPWSPCTKKGKTCGFKRGTETRVREIIQHPSAKGNLCPPTNETRKCTVQRKKCQKGERGKKGRERKRKKPNKGESKEAIPDSKSLESSKEIPEQRENKQQQKKRKVQDKQKSVSVSTVH
notes: Bought from R&D Systems; also called R-spondin 3

These binders were tested against T1, FLAG-LGR6 (human LGR6, predicted mature form aa25-967, N-terminal FLAG tag), expressed on HEK293 cells (human, UniProt Q9HBX8 26-967) (assay: cell-based or functional assay).
T1 sequence: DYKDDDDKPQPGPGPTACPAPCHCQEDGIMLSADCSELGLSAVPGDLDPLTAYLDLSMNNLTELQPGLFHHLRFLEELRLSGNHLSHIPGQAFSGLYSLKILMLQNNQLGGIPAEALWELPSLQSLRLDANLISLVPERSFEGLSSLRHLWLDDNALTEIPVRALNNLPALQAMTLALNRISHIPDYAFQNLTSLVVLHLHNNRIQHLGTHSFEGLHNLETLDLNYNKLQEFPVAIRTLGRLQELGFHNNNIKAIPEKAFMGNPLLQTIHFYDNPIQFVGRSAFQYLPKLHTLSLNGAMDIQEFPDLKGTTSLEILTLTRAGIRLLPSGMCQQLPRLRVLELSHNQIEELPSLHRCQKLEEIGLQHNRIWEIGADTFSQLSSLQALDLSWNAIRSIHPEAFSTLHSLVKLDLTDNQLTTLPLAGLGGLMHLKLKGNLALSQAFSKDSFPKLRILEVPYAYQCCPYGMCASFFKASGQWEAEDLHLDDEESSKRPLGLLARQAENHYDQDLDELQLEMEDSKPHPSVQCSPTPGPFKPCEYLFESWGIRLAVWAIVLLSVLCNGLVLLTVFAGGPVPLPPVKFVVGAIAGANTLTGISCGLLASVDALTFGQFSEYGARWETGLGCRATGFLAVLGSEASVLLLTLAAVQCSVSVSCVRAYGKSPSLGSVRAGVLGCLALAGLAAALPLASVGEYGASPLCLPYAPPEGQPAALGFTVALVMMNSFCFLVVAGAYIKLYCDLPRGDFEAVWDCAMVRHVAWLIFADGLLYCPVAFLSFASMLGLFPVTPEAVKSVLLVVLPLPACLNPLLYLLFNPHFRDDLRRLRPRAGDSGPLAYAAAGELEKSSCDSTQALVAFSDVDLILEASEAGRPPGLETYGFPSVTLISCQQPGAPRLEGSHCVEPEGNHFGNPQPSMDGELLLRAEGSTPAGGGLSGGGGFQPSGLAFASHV

Binder	fold change of EC50 against vector-transfected cells, β-catenin reporter [fold]
B1	20
B2	20

Each binder was assayed against T2, Myc-LGR4 (mouse LGR4, predicted mature form aa23-951, N-terminal Myc tag), expressed on HEK293 cells (mouse, UniProt A2ARI4 23-951) (assay: cell-based or functional assay).
T2 sequence: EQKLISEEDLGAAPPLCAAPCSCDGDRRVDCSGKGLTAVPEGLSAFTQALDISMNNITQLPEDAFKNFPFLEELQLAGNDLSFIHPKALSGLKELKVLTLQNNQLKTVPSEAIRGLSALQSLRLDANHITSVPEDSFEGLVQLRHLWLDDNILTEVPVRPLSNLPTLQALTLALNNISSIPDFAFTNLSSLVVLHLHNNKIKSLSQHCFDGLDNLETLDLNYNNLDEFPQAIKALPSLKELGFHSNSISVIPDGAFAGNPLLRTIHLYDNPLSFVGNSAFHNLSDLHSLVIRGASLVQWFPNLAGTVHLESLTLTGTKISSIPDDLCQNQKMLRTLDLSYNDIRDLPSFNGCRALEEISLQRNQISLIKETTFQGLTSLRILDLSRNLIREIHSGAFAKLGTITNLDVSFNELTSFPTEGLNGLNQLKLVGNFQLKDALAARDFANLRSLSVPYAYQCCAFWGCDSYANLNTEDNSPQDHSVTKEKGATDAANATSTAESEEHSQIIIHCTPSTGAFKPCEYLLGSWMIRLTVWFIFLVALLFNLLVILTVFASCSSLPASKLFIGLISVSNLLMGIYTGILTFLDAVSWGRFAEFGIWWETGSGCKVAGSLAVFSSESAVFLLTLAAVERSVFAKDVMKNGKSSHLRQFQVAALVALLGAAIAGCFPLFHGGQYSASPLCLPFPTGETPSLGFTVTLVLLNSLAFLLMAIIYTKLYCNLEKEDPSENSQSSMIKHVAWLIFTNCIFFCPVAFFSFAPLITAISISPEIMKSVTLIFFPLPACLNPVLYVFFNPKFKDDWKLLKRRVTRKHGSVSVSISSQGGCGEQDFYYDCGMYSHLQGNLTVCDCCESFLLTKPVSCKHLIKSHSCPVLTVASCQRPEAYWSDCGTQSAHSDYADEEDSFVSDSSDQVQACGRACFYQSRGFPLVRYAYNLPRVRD

Binder	maximum effect (Emax, fraction of vector control), β-catenin reporter	potency (EC50, nM), β-catenin reporter (Super 8x TOPFlash) with Wnt3a CM [nM]
B1	0.9 fraction of vector control	0.0003
B3		0.09
B2		0.02
B4	0.9 fraction of vector control	0.02

These binders were tested against T3, Myc-LGR5 (human LGR5, predicted mature form aa21-907, N-terminal Myc tag), expressed on HEK293 cells (human, UniProt O75473 22-907) (assay: cell-based or functional assay).
T3 sequence: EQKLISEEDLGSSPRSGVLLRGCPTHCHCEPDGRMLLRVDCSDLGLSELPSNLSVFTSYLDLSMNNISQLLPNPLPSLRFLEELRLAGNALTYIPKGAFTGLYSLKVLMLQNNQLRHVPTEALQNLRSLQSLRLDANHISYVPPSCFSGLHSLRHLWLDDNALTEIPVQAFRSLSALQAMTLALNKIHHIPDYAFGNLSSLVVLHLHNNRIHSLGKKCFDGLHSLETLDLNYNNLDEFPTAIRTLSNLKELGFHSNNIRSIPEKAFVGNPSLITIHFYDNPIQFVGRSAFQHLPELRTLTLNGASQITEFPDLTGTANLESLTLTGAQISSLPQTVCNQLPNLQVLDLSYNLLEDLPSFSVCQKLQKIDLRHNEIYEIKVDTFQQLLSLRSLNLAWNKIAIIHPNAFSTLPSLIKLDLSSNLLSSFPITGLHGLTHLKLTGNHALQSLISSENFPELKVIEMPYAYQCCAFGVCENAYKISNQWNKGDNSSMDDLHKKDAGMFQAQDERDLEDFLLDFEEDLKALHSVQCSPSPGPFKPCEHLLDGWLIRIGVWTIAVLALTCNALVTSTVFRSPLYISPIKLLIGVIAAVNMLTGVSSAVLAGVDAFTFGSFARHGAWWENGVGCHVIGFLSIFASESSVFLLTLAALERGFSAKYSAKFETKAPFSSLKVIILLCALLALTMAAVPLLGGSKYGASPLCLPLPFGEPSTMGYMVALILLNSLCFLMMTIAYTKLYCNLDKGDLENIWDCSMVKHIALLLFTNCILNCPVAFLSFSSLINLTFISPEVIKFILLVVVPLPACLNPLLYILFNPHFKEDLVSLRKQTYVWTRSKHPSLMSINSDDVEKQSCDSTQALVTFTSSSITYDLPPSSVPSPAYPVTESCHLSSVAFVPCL

Binder	maximum effect (Emax, fraction of vector control), β-catenin reporter	potency (EC50, nM), β-catenin reporter (Super 8x TOPFlash) with Wnt3a CM [nM]
B1	1 fraction of vector control	0.001
B3		0.4
B2		0.008
B4	1.1 fraction of vector control	0.01

Biological target: T1, FLAG-LGR6 (human LGR6, predicted mature …)
Experiment: cell-based or functional assay
Remark: another data set of the same source

Binder	maximum effect (Emax, fraction of vector control), β-catenin reporter	potency (EC50, nM), β-catenin reporter (Super 8x TOPFlash) with Wnt3a CM [nM]
B1	0.5 fraction of vector control	0.01
B2		0.03
B4	0.5 fraction of vector control	0.05

The binders below were run against T2, Myc-LGR4 (mouse LGR4, predicted mature …) (assay: whole-cell fluorescence competition binding, displacement of mRSPO1-Fc (~5 nM) from HEK293 cells expressing Myc-LGR4).
Procedure: (§1) A fluorescence-based whole-cell competition binding assay was developed to determine whether purified, recombinant RSP01-4 could compete with mRSPO1-Fc for binding to LGR4-6. HEK293 cells stably expressing Myc-LGR4, Myc-LGR5, or FLAG-LGR6 were seeded into poly-D-lysine-coated 96-well black/clear bottom plates (Becton Dickinson) at ˜60,000 cells/well. After overnight culturing, the plates were chilled on ice for 5 min, media were removed from each well, and the cells were washed twice with cold PBS. The recombinant RSPOs under investigation were diluted in 3-fold serial dilutions in cold OPTI-MEM®+0.5% BSA and added onto the cells at 50 μl/well, followed immediately by the addition of equal volume of mRSPO1-Fc diluted by 1:100 in the same buffer. The cells were the incubated for 3.5 hrs at 4° C. with gentle agitation, followed by three quick washes with cold PBS. The cells were then fixed in 4% paraformaldehyde/PBS for 15 min at room temperature and washed 3× with PBS. The cells were further incubated with Alexa Fluor® 647-labeled goat anti-mouse IgG (H+L) (Invitrogen, diluted by 1:200) in OPTI-MEM®+0.5% BSA for 1 hr at room temperature. The cells were washed thrice with PBS and fluorescence intensity was measured using a Tecan M1000 plate reader with excitation at 630 nm and emission at 670 nm. All experiments were performed at least twice with quadruplicate replicates in each experiment. HEK293 cells stably expressing Myc-LGR4 (shown in FIG. 4B), Myc-LGR5 (shown in FIG. 4C), or FLAG-LGR6 (shown in FIG. 4D) were incubated with mRSPO1Fc at ˜5 nM plus serial dilutions of purified recombinant RSPO1-4 for 3-4 hrs at 4° C. Binding of mRSPO1-Fc was detected with Alexa Fluor® 647-labeled anti-mouse IgG. Maximum specific binding is defined by the difference between the data of with and without mRSPO1-Fc which is approximately 50% of total binding in general. All error bars are S.E.M. (n=4). […] As shown in FIGS. 4B-D, RSPO1-4 were able to completely displace the binding of mRSPO1-Fc to LGR4-6 with IC50's in the nM range, the one exception was the μM IC50's for RSPO3 (SEQ ID NO:46; SEQ ID NO:47) and RSPO4 (SEQ ID NO:48; SEQ ID NO:49) binding to LGR4.

Binder	IC50 [nM]
B1	2.3
B3	228
B2	25
B4	126

What follows are binders tested against T3, Myc-LGR5 (human LGR5, predicted mature …) (assay: whole-cell fluorescence competition binding, displacement of mRSPO1-Fc (~5 nM) from HEK293 cells expressing Myc-LGR5).
Procedure: as §1

Binder	IC50 [nM]
B1	0.5
B3	11
B2	4
B4	2.1

The binders below were run against T1, FLAG-LGR6 (human LGR6, predicted mature …) (assay: whole-cell fluorescence competition binding, displacement of mRSPO1-Fc (~5 nM) from HEK293 cells expressing FLAG-LGR6).
Procedure: as §1

Binder	IC50 [nM]
B1	0.5
B3	7.7
B2	3.3
B4	1.3
